# Entries after “also recorded” stand apart in the source; their conditions may differ.
# B1: AtLURE1.2: mature form of AtLURE1.2 (residues 20–90), defensin-like cysteine-rich peptide expressed in insect cells (protein)
# chain: TLINGSSDEERTYSFSPTTSPFDPRSLNQELKIGRIGYCFDCARACMRRGKYIRTCSFERKLCRCSISDIK
# modifications: left off: His6, N-terminal, cleaved | SUMO, N-terminal, cleaved
# notes: mature form of AtLURE1.2 (residues 20–90), defensin-like cysteine-rich peptide expressed in insect cells
# What was measured:
# [1] = tested on: AtPRK^LRR proteins other than AtPRK6^LRR; experiment: In vitro pull-down with other AtPRK^LRR proteins; format: binding, Arabidopsis; conditions: Ni-NTA, excess AtLURE1.2, on ice 30 min, washed five times; SDS-PAGE, Coomassie blue
# From the text: (§1) The genes of AtPRK3 ^LRR (residues 1–241), AtPRK4 ^LRR (residues 1–277), AtPRK5 ^LRR (residues 1–279), AtPRK6 ^LRR (residues 1–262), MIK1 ^LRR (residues 1–633), MIK2 ^LRR (residues 1–707) were amplified from Arabidopsis cDNA library by PCR and cloned into pFastBac-1 vector with a C-terminal 6 × His-tag. Their identities were confirmed by sequencing. The mature form of AtLURE1.1 (residues 20–94), AtLURE1.2 (residues 20–90), AtLURE1.3 (residues 21–91), and AtLURE1.4 (residues 20–90) were cloned into pFastBac-1 vector, with a modified N-terminal hemolin signal peptide and 6 × His-SUMO tag. Point mutation constructs were generated by QuickChange Site-Directed Mutagenesis Kit (Strategene). All the proteins were expressed using the Bac-to-Bac baculovirus expression system (Invitrogen) in High Five cells at 22 °C. One liter of High Five cells (2.0 × 10^6 cells mL^−1) cultured in the medium from Expression Systems was infected with 25 ml recombinant baculovirus and the media was collected after 72 h of infection. Secreted LRR proteins were purified using Ni-NTA (Novagen) and size-exclusion chromatography (Hiload 200, GE Healthcare) in buffer containing 10 mM Bis-Tris pH 6.0 and 100 mM NaCl. […]
# (§2) The purified His-tagged ectodomains of AtPRK proteins and MIK1, 2 were used to pull-down the AtLURE1.2 peptide. […] All the eluted samples were analyzed by SDS-PAGE and visualized by Coomassie blue staining. […]
# AtPRK6^LRR = experiment: In vitro pull-down with AtPRK6^LRR; format: binding, Arabidopsis thaliana; conditions: Ni-NTA, excess AtLURE1.2, on ice 30 min, washed five times, 25 mM Tris pH 8.0, 150 mM NaCl; SDS-PAGE, Coomassie blue; repeated at least three times
# From the text: The genes of AtPRK3 ^LRR (residues 1–241), AtPRK4 ^LRR (residues 1–277), AtPRK5 ^LRR (residues 1–279), AtPRK6 ^LRR (residues 1–262), MIK1 ^LRR (residues 1–633), MIK2 ^LRR (residues 1–707) were amplified from Arabidopsis cDNA library by PCR and cloned into pFastBac-1 vector with a C-terminal 6 × His-tag. Their identities were confirmed by sequencing. The mature form of AtLURE1.1 (residues 20–94), AtLURE1.2 (residues 20–90), AtLURE1.3 (residues 21–91), and AtLURE1.4 (residues 20–90) were cloned into pFastBac-1 vector, with a modified N-terminal hemolin signal peptide and 6 × His-SUMO tag. Point mutation constructs were generated by QuickChange Site-Directed Mutagenesis Kit (Strategene). All the proteins were expressed using the Bac-to-Bac baculovirus expression system (Invitrogen) in High Five cells at 22 °C. One liter of High Five cells (2.0 × 10^6 cells mL^−1) cultured in the medium from Expression Systems was infected with 25 ml recombinant baculovirus and the media was collected after 72 h of infection. Secreted LRR proteins were purified using Ni-NTA (Novagen) and size-exclusion chromatography (Hiload 200, GE Healthcare) in buffer containing 10 mM Bis-Tris pH 6.0 and 100 mM NaCl. The His-SUMO tag of the AtLURE proteins was removed by Prescission Protease at 4 °C overnight in buffer containing 25 mM Tris pH 8.0 and 150 mM NaCl. All AtLURE proteins were further cleaned by size-exclusion chromatography (Hiload 200, GE Healthcare). For co-expression of AtPRK6^LRR and AtLURE1, one liter of High Five cells were co-infected with 20 and 30 ml recombinant baculovirus of AtPRK6^LRR and AtLURE1, respectively. Secreted AtPRK6^LRR-AtLURE1 complexes were processed with Prescission Protease digestion and then purified as described above. Expression and purification procedures of all the mutants were essentially the same as those of AtPRK6^LRR and AtLURE1.2.
# as §2
# [2] = tested on: prk6 pollen tubes transformed with PRK6 of wild-type; experiment: Wavy assay, prk6 pollen tubes transformed with wild-type PRK6; format: cell-based, Arabidopsis; conditions: 250 nM wild-type AtLURE1.2 in medium
# Protocol: (§3) Attraction activities of mutant AtLURE1.2 peptides were examined for semi-in-vivo pollen tubes growing through cut, pollinated pistils by gelatin-beads assay and wavy assay, [20]. For the gelatin-beads assay, pollen tubes were grown on solid pollen germination medium poured into a mold made with 1-mm thick silicone rubber and cover glasses. After hand-pollination, the topside cover glass was removed and the medium was covered with hydrated silicone oil (KF-96–100CS; Shin-Etsu). Attraction of pollen tubes toward the peptide was evaluated using AtLURE1 peptide containing gelatine beads under an inverted microscope (IX71, Olympus) equipped with a micro-manipulator (Narishige). For the AtLURE1-responsive wavy assay, the purified AtLURE1.2 peptide was added to solid pollen germination medium, which was melted at 70 °C and then cooled to a certain degree. The mixture was mixed by vortexing and poured into the mold. Pollen tubes of each genotype were grown through cut styles, as mentioned above. Each peptide (25 μM in 10 mM Bis-Tris (pH 6.0) and 100 mM NaCl) was diluted to 250 nM by cultivation medium in both assays. […]
# pollen tubes. Fluorescence is from mRuby2 fused to the C-terminal of PRK6 receptors, showing that all of mutant PRK6 receptors localize normally to the plasma membrane of the pollen tube tip. […]
# [3] = tested on: prk6 pollen tubes transformed with PRK6 ΔN239I240; experiment: Gelatin-beads assay, prk6 pollen tubes transformed with ΔN239I240 PRK6; format: cell-based, Arabidopsis; conditions: beads with 250 nM wild-type AtLURE1.2; 10–23 pollen tubes per assay, three assays
# Protocol: as §3, with “assays. To examine reactivity of PRK6 mutants to AtLURE1.2, constructs for PRK6 mutants, D234A, N239A, and ΔN239I240, were generated by site-directed mutagenesis from a wild-type PRK6 vector, pPZP221-pPRK6::PRK6-mRuby2 (ref. [20]).” for “assays.”
# AtPRK6^LRR ΔN239I240 = experiment: In vitro pull-down with AtPRK6^LRR mutant with Asn239 and Ile240 deleted; format: binding, Arabidopsis thaliana; conditions: wild-type AtLURE1.2
# From the text: as §1, §2
molecule,measurement,setting,value
B1,interaction in pull-down assay,[1],none of the other LRR proteins was found to interact
same,interaction in pull-down assay,AtPRK6^LRR,strongly interacted
same,wavy and branched pollen tube behavior,[2],severe wavy and branched behavior
same,pollen tube attraction,[3],significantly lower than those in wild-type and N239A PRK6 pollen tubes; also recorded: significantly reduced
same,interaction in pull-down assay,AtPRK6^LRR ΔN239I240,A similar effect was observed; also recorded: significantly compromised

# — paper PMC5673899, “Structural basis for receptor recognition of pollen tube attraction peptides” (Nature Communications, 2017)
